From PMC5146981, “MMP-13 is constitutively produced in human chondrocytes and co-endocytosed with ADAMTS-5 and TIMP-3 by the endocytic receptor LRP1” (Matrix Biology, 2016)
Where two headings read alike, the source gives them in different places. Each block holds one molecule with its values, some of them ahead of it.

What was measured:
[1] = molecular target: purified human full-length LRP1 (low-density lipoprotein receptor-related protein 1) (human); experiment: ELISA; solid-phase binding; full-length LRP1 (5 nM in TNC) coated on microtiter plates overnight at 4 °C, blocked with 3% BSA; MMPs 0-50 nM for 3 h at room temperature; detected with anti-MMP antibodies and HRP secondary antibody; apparent KD (K_D,app)
[2] = molecular target: purified human full-length LRP1 (low-density lipoprotein receptor-related protein 1); experiment: solid-phase binding assay (ELISA) on immobilized LRP1; settings: point at 50 nM MMP, read off a plot
[3] = molecular target: purified human full-length LRP1 (low-density lipoprotein receptor-related protein 1); experiment: competition solid-phase binding assay (ELISA) on immobilized LRP1; settings: 200 nM proMMP-1(E200A) as competitor of 6 nM proMMP-13(E223A); detection with anti-FLAG M2 antibody; read off a plot
[4] = molecular target: purified human full-length LRP1 (low-density lipoprotein receptor-related protein 1) (human); experiment: ELISA; full-length LRP1 coated; proMMP-13(E223A) 0-40 nM in the absence or presence of 50 nM ADAMTS-5, 250 nM ADAMTS-4 or 50 nM TIMP-3 plus 50 μM CT1746; apparent KD (K_D,app)
[5] = molecular target: LRP1 ligand-binding cluster I (human) (UniProt Q07954); experiment: ELISA; purified LRP1 fragments (clusters I to IV) coated on microtiter plates; proMMP-13(E223A) or Hpx_(MMP-13) 0-200 nM; detected with anti-MMP-13 181-14G11; extrapolated apparent KD (K_D,app)
Chain of LRP1 ligand-binding cluster I (human) (Q07954 20-4544): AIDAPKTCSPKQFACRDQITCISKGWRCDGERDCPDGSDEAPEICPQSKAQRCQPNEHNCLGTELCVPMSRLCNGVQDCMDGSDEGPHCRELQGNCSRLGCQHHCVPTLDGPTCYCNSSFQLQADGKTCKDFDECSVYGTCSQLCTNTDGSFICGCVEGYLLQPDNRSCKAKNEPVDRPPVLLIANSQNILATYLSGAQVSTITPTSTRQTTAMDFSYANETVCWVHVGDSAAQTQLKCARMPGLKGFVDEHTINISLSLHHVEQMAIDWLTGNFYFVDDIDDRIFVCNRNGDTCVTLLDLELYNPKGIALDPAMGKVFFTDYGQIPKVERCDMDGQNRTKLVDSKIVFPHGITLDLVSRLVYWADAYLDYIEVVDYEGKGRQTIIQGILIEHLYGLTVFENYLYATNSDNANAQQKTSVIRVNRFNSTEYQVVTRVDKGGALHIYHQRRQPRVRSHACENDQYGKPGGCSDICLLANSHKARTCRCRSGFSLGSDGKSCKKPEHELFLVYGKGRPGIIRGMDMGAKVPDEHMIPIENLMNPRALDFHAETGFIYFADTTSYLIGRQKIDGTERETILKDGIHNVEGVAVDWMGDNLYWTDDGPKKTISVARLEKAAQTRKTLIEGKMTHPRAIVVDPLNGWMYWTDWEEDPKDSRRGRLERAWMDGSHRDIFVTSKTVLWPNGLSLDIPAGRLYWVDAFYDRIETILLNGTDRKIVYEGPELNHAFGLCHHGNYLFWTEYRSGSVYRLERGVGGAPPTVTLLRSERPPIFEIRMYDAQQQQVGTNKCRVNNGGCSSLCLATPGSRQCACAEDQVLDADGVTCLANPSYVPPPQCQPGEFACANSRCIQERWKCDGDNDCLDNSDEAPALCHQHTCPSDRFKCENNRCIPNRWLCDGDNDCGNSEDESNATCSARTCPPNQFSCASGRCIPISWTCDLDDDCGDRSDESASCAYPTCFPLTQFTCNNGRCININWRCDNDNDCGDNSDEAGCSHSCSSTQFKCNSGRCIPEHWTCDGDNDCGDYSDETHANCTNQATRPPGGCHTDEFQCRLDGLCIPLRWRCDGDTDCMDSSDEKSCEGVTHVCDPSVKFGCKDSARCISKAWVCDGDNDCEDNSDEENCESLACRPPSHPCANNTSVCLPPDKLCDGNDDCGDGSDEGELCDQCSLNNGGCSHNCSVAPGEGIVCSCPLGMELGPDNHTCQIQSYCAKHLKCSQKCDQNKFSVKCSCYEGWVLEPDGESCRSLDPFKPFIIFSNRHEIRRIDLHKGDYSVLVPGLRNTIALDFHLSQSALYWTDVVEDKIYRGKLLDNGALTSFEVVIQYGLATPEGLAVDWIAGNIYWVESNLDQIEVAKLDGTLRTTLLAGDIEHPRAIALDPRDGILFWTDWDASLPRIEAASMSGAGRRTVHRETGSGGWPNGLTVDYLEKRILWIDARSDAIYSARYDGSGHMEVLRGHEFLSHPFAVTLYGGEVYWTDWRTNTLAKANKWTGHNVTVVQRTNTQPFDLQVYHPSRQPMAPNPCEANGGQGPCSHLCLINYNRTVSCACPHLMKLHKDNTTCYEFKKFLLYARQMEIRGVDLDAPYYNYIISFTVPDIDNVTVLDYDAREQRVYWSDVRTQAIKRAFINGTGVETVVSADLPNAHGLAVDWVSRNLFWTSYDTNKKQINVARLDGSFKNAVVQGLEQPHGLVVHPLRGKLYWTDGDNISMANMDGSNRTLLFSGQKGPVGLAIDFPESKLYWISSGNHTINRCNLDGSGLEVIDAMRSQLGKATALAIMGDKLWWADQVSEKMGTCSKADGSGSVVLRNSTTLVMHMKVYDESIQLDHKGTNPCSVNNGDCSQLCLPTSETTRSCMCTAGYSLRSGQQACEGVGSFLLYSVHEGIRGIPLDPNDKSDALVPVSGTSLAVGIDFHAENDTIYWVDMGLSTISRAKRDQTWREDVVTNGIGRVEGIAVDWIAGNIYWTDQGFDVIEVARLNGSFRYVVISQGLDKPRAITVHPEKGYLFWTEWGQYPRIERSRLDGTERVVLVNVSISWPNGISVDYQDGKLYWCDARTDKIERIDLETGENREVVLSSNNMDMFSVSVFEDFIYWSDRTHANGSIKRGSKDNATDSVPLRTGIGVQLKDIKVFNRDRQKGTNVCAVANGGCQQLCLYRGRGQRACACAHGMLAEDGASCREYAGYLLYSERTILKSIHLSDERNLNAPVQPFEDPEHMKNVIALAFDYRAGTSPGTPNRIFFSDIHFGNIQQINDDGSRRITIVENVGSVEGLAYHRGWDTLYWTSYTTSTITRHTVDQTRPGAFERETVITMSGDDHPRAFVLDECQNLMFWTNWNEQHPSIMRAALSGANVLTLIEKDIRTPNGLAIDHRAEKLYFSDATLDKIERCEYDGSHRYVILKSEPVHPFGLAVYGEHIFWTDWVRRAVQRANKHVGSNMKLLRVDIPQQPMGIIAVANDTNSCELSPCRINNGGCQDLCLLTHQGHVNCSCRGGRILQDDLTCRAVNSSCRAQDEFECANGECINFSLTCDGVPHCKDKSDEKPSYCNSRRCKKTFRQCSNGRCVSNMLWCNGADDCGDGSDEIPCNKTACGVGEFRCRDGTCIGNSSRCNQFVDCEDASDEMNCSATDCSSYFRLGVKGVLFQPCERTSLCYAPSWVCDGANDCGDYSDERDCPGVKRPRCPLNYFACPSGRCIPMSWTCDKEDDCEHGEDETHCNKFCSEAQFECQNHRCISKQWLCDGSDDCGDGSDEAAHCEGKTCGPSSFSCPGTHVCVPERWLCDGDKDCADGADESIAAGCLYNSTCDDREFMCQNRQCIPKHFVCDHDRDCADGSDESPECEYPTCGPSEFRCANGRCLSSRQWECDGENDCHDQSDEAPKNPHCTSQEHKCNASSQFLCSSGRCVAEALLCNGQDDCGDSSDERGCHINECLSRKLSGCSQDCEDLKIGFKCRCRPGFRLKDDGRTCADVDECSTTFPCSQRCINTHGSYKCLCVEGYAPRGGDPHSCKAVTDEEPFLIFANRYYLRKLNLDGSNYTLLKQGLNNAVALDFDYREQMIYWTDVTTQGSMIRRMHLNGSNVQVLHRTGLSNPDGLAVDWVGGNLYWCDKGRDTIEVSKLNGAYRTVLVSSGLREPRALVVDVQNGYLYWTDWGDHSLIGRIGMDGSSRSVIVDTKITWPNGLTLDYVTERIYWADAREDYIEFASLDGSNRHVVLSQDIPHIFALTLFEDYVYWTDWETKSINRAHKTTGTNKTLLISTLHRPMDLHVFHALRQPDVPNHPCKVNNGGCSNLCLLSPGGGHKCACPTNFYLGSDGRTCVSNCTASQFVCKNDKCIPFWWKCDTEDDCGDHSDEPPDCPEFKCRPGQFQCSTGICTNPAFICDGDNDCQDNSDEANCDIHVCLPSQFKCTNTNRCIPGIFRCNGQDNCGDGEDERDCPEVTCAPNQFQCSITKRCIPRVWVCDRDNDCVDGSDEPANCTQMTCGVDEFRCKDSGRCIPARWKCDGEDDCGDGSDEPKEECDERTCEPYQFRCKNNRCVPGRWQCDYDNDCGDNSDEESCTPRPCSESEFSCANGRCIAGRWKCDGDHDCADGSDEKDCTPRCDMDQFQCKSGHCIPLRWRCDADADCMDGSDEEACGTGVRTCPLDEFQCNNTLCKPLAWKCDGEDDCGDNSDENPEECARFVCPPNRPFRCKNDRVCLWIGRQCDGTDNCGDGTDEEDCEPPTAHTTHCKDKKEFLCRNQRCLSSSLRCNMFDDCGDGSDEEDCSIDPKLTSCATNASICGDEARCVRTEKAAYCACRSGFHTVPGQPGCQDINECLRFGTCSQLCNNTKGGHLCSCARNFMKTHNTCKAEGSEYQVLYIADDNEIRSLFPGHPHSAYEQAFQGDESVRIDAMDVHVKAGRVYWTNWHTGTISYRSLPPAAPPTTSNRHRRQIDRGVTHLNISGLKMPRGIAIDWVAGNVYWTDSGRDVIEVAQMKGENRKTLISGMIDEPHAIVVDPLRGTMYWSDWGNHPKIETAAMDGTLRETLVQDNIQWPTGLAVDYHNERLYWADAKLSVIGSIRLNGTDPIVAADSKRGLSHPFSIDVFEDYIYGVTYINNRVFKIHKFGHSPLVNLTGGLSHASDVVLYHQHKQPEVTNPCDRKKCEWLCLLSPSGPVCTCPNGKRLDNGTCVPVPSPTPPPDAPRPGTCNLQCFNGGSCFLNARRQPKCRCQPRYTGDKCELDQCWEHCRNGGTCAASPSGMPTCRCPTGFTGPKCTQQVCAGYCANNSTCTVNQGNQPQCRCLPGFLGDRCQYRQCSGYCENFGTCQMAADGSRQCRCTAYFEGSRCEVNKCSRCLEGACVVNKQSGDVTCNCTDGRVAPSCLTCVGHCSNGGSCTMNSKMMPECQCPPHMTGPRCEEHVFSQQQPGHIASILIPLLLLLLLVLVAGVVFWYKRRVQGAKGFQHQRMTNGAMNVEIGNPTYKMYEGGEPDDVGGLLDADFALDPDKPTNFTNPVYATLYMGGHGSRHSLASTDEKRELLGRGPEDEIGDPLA

[6] = molecular target: LRP1 ligand-binding cluster IV (human) (UniProt Q07954); experiment: as above
Chain of LRP1 ligand-binding cluster IV (human) (Q07954 20-4544): as above

[7] = molecular target: LRP1 ligand-binding cluster III (human, UniProt Q07954 2522-2940); experiment: as above
Chain of LRP1 ligand-binding cluster III (Q07954 2522-2940): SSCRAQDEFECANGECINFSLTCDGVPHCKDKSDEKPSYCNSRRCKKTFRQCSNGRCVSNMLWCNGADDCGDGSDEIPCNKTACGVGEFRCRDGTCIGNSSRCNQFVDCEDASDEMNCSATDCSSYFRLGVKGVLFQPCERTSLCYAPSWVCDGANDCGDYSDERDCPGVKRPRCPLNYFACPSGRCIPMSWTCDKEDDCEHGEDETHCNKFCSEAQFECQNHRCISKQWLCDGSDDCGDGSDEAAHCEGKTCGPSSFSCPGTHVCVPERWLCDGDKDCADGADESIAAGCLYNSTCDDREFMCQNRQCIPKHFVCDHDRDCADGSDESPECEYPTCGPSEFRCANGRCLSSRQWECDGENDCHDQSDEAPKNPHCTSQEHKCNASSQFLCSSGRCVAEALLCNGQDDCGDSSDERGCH

[8] = molecular target: T1, LRP1 ligand-binding cluster II (human, UniProt Q07954 852-1182); experiment: as above
T1 construct: also called soluble LRP1 cluster II
T1 sequence (looked up): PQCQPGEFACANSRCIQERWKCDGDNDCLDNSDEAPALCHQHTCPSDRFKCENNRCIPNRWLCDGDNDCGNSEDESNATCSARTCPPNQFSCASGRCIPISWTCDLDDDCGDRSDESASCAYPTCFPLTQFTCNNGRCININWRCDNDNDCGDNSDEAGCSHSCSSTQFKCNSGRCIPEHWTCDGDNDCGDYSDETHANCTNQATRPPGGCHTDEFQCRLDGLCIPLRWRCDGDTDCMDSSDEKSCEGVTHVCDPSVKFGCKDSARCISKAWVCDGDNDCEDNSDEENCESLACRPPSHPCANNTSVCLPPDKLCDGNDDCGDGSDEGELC

[9] = molecular target: purified human full-length LRP1 (low-density lipoprotein receptor-related protein 1) (human)

- Kd [1]: 3.8 nM
Molecule: MMP-13(E223A), activated form (from UniProt P45452 104-471) (enzyme)

- response (absorbance at 450 nm) ([2]; detection with anti-MMP-1 (SB12e) antibody): 0.13
- other: ProMMP-13 bound to LRP1 (% of amount bound without competitor) [3]: 100%
Molecule: proMMP-1 E200A

- Kd [1]: 5.1 nM
Molecule: proMMP-1-1-13(E200A) (MMP-1_(1-258)-MMP-13_(264-451)) (enzyme)

- response (absorbance at 450 nm) ([2]; detection with anti-MMP-3 (4B7.3) antibody): 0.25
Molecule: proMMP-3 E202A

- K D,app in the presence of 50 nM ADAMTS-5 [4]: 5.2 nM
- K D,app in the presence of 50 nM TIMP-3 [4]: 8.2 nM
- K D,app in the presence of 250 nM ADAMTS-4 [4]: 5.6 nM
- Kd [5]: > 200 nM
- Kd [6]: > 100 nM
- Kd [1]: 6 nM
- Kd [7]: 24 nM
- Kd [8]: 17 nM
Molecule: proMMP-13(E223A) (from UniProt P45452 20-471) (enzyme)

- clearance of 10 nM exogenous proMMP-13 from the medium of human chondrocytes, 0-4 h, Western blot; inhibited by 500 nM RAP and in LRP1-silenced cells [9]: 70 min
Molecule: proMMP-13(WT), MMP-13 with a FLAG tag between the signal and propeptide

- proMMP-13 (10 nM) found in the cell lysate after 1 h with human chondrocytes at 4 °C (surface binding); abolished in the presence of 500 nM RAP [9]: 25%
- Kd [1]: 5.9 nM
Molecule: proMMP-13(WT), MMP-13 with a FLAG tag between the signal and propeptide (enzyme)

- Kd [5]: > 200 nM
- Kd [6]: > 50 nM
- Kd [1]: 2.7 nM
- Kd ([7]; both partners purified): 13 nM
- Kd ([8]; both partners purified): 15 nM
B1: hemopexin domain of MMP-13 (Hpx_(MMP-13)) (domain or fragment, human, UniProt P45452 284-471, looked up)
chain: CDPSLSLDAITSLRGETMIFKDRFFWRLHPQQVDAELFLTKSFWPELPNRIDAAYEHPSHDLIFIFRGRKFWALNGYDILEGYPKKISELGLPKEVKKISAAVHFEDTGKTLLFSGNQVWRYDDTNHIMDKDYPRLIEEDFPGIGDKVDAVYEKNGYIYFFNGPIQFEYSIWSNRIVRVMPANSILWC
notes: MMP-13 (collagenase 3), human, hemopexin domain released by autolysis; also called Hpx domain of MMP-13; source: from proMMP-13 incubated with 1 mM APMA at 37 °C for at least 16 h
